Measurements as given in patent US20050100897A1, “NFAT transcription factors in tumor progression” (priority 2002, published 2005).

Tests used:
Type in all cases: cell-based, human
[1] = test system: Clone A colon cancer cell line; test: Matrigel chemoinvasion assay, Clone A cells; conditions: transient transfection
Method: Invasion assays were performed using standard methods (see Shaw et al., Cell 91:949-960, 1997) using Transwell chambers coated with Matrigel. Briefly, cells were co-transfected with the indicated NFAT constructs, 1 μg EGFP-N1 (Clontech) and 1 μg pCS2-(n)β-Gal, a •gal expression vector (Dave Turner, University of Michigan) using the Lipofectamine procedure (Life Technologies), and after twenty-four hours, the cells were resuspended in serum-free medium containing 0.1% bovine serum albumin (BSA) and added to each well. […] Cells that stained positive for β-galactosidase expression were counted, and the mean of triplicate assays for each experimental condition was used as % relative invasion.

[2] = test system: parental MDA-MB-435 β4-negative cells; test: Matrigel invasion assay, parental MDA-MB-435 cells; conditions: transient transfection, parental MDA-MB-435 (no α6β4)
Method: (§1) FIGS. 5A-5B are graphs and immunoblots showing the effects of NFAT1 and NFAT5 over expression on transfected cells. Parental MDA-MB-435 β4-negative cells were transiently transfected with wild-type NFAT-1 (FIG. 5A) tagged with the HA epitope (NFAT-1) or with wild-type NFAT-5 (FIG. 5B) tagged with the myc epitope (NFAT-5) or control vector alone (vector). Following the transfection protocol, cells were assayed for their ability to migrate or to invade Matrigel. Relative migration/invasion were determined by comparing the amount of migration/invasion obtained from NFAT transfectants to that obtained from cells transfected with vector alone, which was assigned a value of 100%. An aliquot of transfected cells was lysed and nuclear extracts were resolved by SDS PAGE and immunoblotted with anti-HA or anti-myc. The data shown are mean values (±SEM) of 3 experiments performed in triplicate.
(§2) Invasion assays were performed using standard methods (see Shaw et al., Cell 91:949-960, 1997) using Transwell chambers coated with Matrigel. […] Cells that stained positive for β-galactosidase expression were counted, and the mean of triplicate assays for each experimental condition was used as % relative invasion. […]

[3] = test system: parental MDA-MB-435 cells; test: Chemotactic migration assay (Transwell without Matrigel), parental MDA-MB-435; conditions: transient transfection; conditioned media present, no Matrigel
Method: as §1
Increased cell migration was intimately linked with carcinoma invasion. […]
as §2

Molecule | carcinoma invasion (relative invasion vs vector alone) [1] | carcinoma invasion [2] | chemotactic migration [3]
DBD5: NFAT-5 dominant negative mutant comprising amino acids 175-471 (SEQ ID NO:14) of NFAT5a (protein, listed as Homo sapiens) GNGTLENQKGTGVKKSPMLCGQYPVKSEGKELKIVVQPETQHRARYLTEGSRGSVKDRTQQGFPTVKLEGHNEPVVLQVFVGNDSGRVKPHGFYQACRVTGRNTTPCKEVDIEGTTVIEVGLDPSNNMTLAVDCVGILKLRNADVEARIGIAGSKKKSTRARLVFRVNIMRKDGSTLTLQTPSSPILCTQPAGVPEILKKSLHSCSVKGEEEVFLIGKNFLKGTKVIFQENVSDENSWKSEAEIDMELFHQNHLIVKVPPYHDQHITLPVSVGIYVVTNAGRSHDVQPFTYTPDPAA | also inhibited invasion | – | –
wild-type NFAT-1: wild-type NFAT-1 tagged with the HA epitope, transiently overexpressed (protein) MNAPERQPQPDGGDAPGHEPGGSPQDELDFSILFDYEYLNPNEEEPNAHKVASPPSGPAYPDDVMDYGLKPYSPLASLSGEPPGRFGEPDRVGPQKFLSAAKPAGASGLSPRIEITPSHELIQAVGPLRMRDAGLLVEQPPLAGVAASPRFTLPVPGFEGYREPLCLSPASSGSSASFISDTFSPYTSPCVSPNNGGPDDLCPQFQNIPAHYSPRTSPIMSPRTSLAEDSCLGRHSPVPRPASRSSSPGAKRRHSCAEALVALPPGASPQRSRSPSPQPSSHVAPQDHGSPAGYPPVAGSAVIMDALNSLATDSPCGIPPKMWKTSPDPSPVSAAPSKAGLPRHIYPAVEFLGPCEQGERRNSAPESILLVPPTWPKPLVPAIPICSIPVTASLPPLEWPLSSQSGSYELRIEVQPKPHHRAHYETEGSRGAVKAPTGGHPVVQLHGYMENKPLGLQIFIGTADERILKPHAFYQVHRITGKTVTTTSYEKIVGNTKVLEIPLEPKNNMRATIDCAGILKLRNADIELRKGETDIGRKNTRVRLVFRVHIPESSGRIVSLQTASNPIECSQRSAHELPMVERQDTDSCLVYGGQQMILTGQNFTSESKVVFTEKTTDGQQIWEMEATVDKDKSQPNMLFVEIPEYRNKHIRTPVKVNFYVINGKRKRSQPQHFTYHPVPAIKTEPTDEYDPTLICSPTHGGLGSQPYYPQHPMVAESPSCLVATMAPCQQFRTGLSSPDARYQQQNPAAVLYQRSKSLSPSLLGYQQPALMAAPLSLADAHRSVLVHAGSQGQSSALLHPSPTNQQASPVIHYSPTNQQLRCGSHQEFQHIMYCENFAPGTTRPGPPPVSQGQRLSPGSYPTVIQQQNATSQRAAKNGPPVSDQKEVLPAGVTIKQEQNLDQTYLDDELIDTHLSWIQNIL | – | also induced carcinoma invasion | sufficient to increase chemotactic migration
wild-type NFAT-5: wild-type NFAT-5 tagged with the myc epitope, transiently overexpressed (protein) MSQTSGGEAGSPPPAVVAADASSAPSSSSMGGACSSFTTSSSPTIYSTSVTDSKAMQVESCSSAVGVSNRGVSEKQLTSNTVQQHPSTPKRHTVLYISPPPEDLLDNSRMSCQDEGCGLESEQSCSMWMEDSPSNFSNMSTSSYNDNTEVPRKSRKRNPKQRPGVKRRDCEESNMDIFDADSAKAPHYVLSQLTTDNKGNSKAGNGTLENQKGTGVKKSPMLCGQYPVKSEGKELKIVVQPETQHRARYLTEGSRGSVKDRTQQGFPTVKLEGHNEPVVLQVFVGNDSGRVKPHGFYQACRVTGRNTTPCKEVDIEGTTVIEVGLDPSNNMTLAVDCVGILKLRNADVEARIGIAGSKKKSTRARLVFRVNIMRKDGSTLTLQTPSSPILCTQPAGVPEILKKSLHSCSVKGEEEVFLIGKNFLKGTKVIFQENVSDENSWKSEAEIDMELFHQNHLIVKVPPYHDQHITLPVSVGIYVVTNAGRSHDVQPFTYTPDPAAAGALNVNVKKEISSPARPCSFEEAMKAMKTTGCNLDKVNIIPNALMTPLIPSSMIKSEDVTPMEVTAEKRSSTIFKTTKSVGSTQQTLENISNIAGNGSFSSPSSSHLPSENEKQQQIQPKAYNPETLTTIQTQDISQPGTFPAVSASSQLPNSDALLQQATQFQTRETQSREILQSDGTVVNLSQLTEASQQQQQSPLQEQAQTLQQQISSNIFPSPNSVSQLQNTIQQLQAGSFTGSTASGSSGSVDLVQQVLEAQQQLSSVLFSAPDGNENVQEQLSADIFQQVSQIQSGVSPGMFSSTEPTVHTRPDNLLPGRAESVHPQSENTLSNQQQQQQQQQQVMESSAAMVMEMQQSICQAAAQIQSELFPSTASANGNLQQSPVYQQTSHMMSALSTNEDMQMQCELFSSPPAVSGNETSTTTTQQVATPGTTMFQTSSSGDGEETGTQAKQIQNSVFQTMVQMQHSGDNQPQVNLFSSTKSMMSVQNSGTQQQGNGLFQQGNEMMSLQSGNFLQQSSHSQAQLFHPQNPIADAQNLSQETQGSLFHSPNPIVHSQTSTTSSEQMQPPMFHSQSTIAVLQGSSVPQDQQSTNIFLSQSPMNNLQTNTVAQEAFFAAPNSISPLQSTSNSEQQAAFQQQAPISHIQTPMLSQEQAQPPQQGLFQPQVALGSLPPNPMPQSQQGTMFQSQHSIVAMQSNSPSQEQQQQQQQQQQQQQQQQQSILFSNQNTMATMASPKQPPPNMIFNPNQNPMANQEQQNQSIFHQQSNMAPMNQEQQPMQFQSQSTVSSLQNPGPTQSESSQTPLFHSSPQIQLVQGSPSSQEQQVTLFLSPASMSALQTSINQQDMQQSPLYSPQNNMPGIQGATSSPQPQATLFHNTAGGTMNQLQNSPGSSQQTSGMFLFGIQNNCSQLLTSGPATLPDQLMAISQPGQPQNEGQPPVTTLLSQQMPENSPLASSINTNQNIEKIDLLVSLQNQGNNLTGSF | – | this was not observed | sufficient to increase chemotactic migration
